Laboratory results as given in patent publication US20130189283A1.
Where no end group is shown, it is not given here.

Molecular target: Kv1.3 voltage-gated potassium channel on T cells in human whole blood (human) (UniProt P22001)
Assay: cell-based or functional assay

Chain of Kv1.3 voltage-gated potassium channel on T cells in human whole blood (human) (P22001 whole entry): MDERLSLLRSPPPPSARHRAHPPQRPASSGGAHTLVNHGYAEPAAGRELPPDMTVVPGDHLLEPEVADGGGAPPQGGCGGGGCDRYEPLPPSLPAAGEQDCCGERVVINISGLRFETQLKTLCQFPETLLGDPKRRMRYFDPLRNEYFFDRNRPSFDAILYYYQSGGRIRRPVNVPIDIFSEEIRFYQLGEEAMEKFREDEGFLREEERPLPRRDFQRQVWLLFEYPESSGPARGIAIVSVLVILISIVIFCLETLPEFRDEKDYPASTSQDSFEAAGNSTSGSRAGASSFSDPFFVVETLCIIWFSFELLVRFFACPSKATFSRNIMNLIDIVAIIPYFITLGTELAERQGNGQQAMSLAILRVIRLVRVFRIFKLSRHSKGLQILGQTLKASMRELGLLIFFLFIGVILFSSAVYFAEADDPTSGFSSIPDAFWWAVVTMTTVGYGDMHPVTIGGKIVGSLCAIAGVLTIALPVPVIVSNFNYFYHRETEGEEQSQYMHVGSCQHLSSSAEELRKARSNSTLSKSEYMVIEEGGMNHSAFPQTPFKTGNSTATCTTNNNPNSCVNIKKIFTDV

B1: Bivalent Fc-L10-ShK[1-35] homodimer (Fc fusion)
chain: GGGGSGGGGSRSCIDTIPKSRCTAFQCKHSMKYRLSFCRKTCGTC
modifications: not fully specified (N-terminus); ends and bridges not checked; also: homodimer via Fc
B1 gave a Potency Relative to ShK (WB, IL2) of 5.76 fold, a WB (IFNg) IC50 of 0.32 nM and a WB (IL-2) IC50 of 0.386 nM.

B2: Bivalent Fc-L10-ShK[2-35] homodimer (Fc fusion)
chain: GGGGSGGGGSSCIDTIPKSRCTAFQCKHSMKYRLSFCRKTCGTC
modifications: not fully specified (N-terminus); ends and bridges not checked; also: homodimer via Fc
B2 was tested, and the Potency Relative to ShK (WB, IL2) was 8.73 fold, the WB (IFNg) IC50 was 2.29 nM and the WB (IL-2) IC50 was 0.585 nM.
